In the nanobody polyreactivity screen of Harvey et al. (2022):

Test: yeast display, Sf9 membrane polyspecificity reagent, FACS + sequencing; frameworks hold sequencing errors
Summary of the method: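 Synthetic nanobody libraries on Saccharomyces cerevisiae BJ5465 were galactose-induced for 36–48 hours, stained 1 hour at 4 °C with 10% biotinylated, detergent-solubilized Sf9 membrane reagent and enriched on streptavidin microbeads. FACS then separated cells into low and high (top ~1%) gates by anti-HA (expression) and streptavidin (reagent binding) fluorescence. Genes were colony-PCR amplified, MiSeq 2 × 250 sequenced and CDR-length filtered. A clone's polyreactivity label is that of its gate of origin.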

Sequence	polyreactivity (PSR sort gate)
QVQLQESGGGPVLAGGSLRLSCAASGTIFVPLDMGWYRQAPGKEREFVATIGSGSSTYYADSVKGSFTISRDNVKNTVYLQMNSLKPEDTAVYYCAVSAAEQSRHYYWDQGTQVTVSS	low polyreactivity
QVQLQESGGLVQAGGSLRLSCAASGSISGRNVMGWYRQAPGKEREFVASITDGSSTNYADSVKGRVTISRDNAKNTVYLQMNSLKPKDTAVYYCAAYAQRAKSFGYWGRGTQVTVSS	low polyreactivity
QVQLQESGGRLEQAGGSLRPSCAASGSISDGVPMRWNRQAPGEERELVATTVLGATTNYADSVKGRFTISRGNAKHTVYLQMNSLKPEETAVYYCAARLRYDKGFSYWGQGTQVTVSS	low polyreactivity
QVQLQESGGVLEQARGSLRLSCAASGFIFARNYMGWYSQAPGKERELVAGIGVGAITNYADSVKGRFTISRDNAKNTVYLQMNSLETEESAVYYCAVGDTVLGYHYYWGQGTQVTVSN	low polyreactivity
QVQLQESGGVLVQAGGSLRQSYAASGYIFPSLAMGWYRQAPGKEREFVAAIGRGSTNNYADSVKGRFTISRDNAKNTAYQQMNSLKPEDTAVYYCAAAASPLTRHLYWGQGTQVTVSS	low polyreactivity
QVQLQESGSGLVQAGGSLRLSCAAIGAIFPAYLMGWYRQAPGKERELVAGISYGSITYCADSVKGRFNISRDNAKNTVYLQMNSLKPEYTAVYYCAVWRPGGDEYYYWGQGTQVTVSS	low polyreactivity
QVQLQESGVGLVQAYGSLRLSCAAIGSIFGYYYMGSYRQAPGKDRELVATINICGITNYADSVKGRFTISRDNAKYTVYLQMKSLKRDDTAVFYCAADEYAQRDLGYWGQGTQVTVSS	low polyreactivity
QVQLQESGVRLVQAGGSLRLSCAASGPISRRSTMGWYRQAPGKERELVTAITRGTNTNYADSVKGRFTISRDNAKNTEYLQMNSLKPEDTAVYYCAAYGVLKPSRGDAVFHRYWGQGTQVTVSS	low polyreactivity
QVQLQESRGGLVQAGGSLRLSCAASGSITHYIFMGWYRQAPGKEREFVAGIGYGGTTNYADSVKGRFTISRDNAKNTVFLQMNSLKPEDTAMYYCAAREATEFYLYYWGQGTQVTVSS	low polyreactivity
QVQLQESSGGLVQAGGSLRMSCAASGTIFHFHIMGWYRQAPGKEREFVAAISYGTSTYYADSVKGRFTISRDNAKNTVYLQMNSQKPEDTGVYYCAVYDYLEVYCWYWGQGTQVTVSS	low polyreactivity
QVQLQESSGGLVQAGGTLRMSCAASGTIFHFHIMGWYRQAPGKEREFVAAISYGTSTYYADSVKCRFTISRDNAKNTVFLQMNSQNPEDNEVYYCAVYDYLEVYCWYWGQGTQVTVSS	low polyreactivity
QVQLQESVGGLVQACGSQRLICAASGYIFSHQYMGCYRQAPGKERELVASMSPGATTNYADRVKGRFTISRDNAKNTVYLQMNSLKTEDTAVYYYAVYQILDRRLSYWGQGTQVTVSC	high polyreactivity
QVQLQESVGGLVQAGGSLRLSCAASGNIFPTHRMGWYRQAPGKELEFVATISDGGSTNYADSVKGRFTISRDHAKNTVYLQMNSLKPEDTAVYYCAVLSLGRLRHYYWGQGTQVTVSS	low polyreactivity
QVQLQGSGGGLAQAGDSLRLSCAASGTIFSEYNNGLVSPGAGQRTRTCCRYWCWGNTYYADSAKGRFTTSRDNAKNTVYLQKHSLKPADTAVYYCAFNRPFPSRHIYRGQGTQVTVSS	high polyreactivity
QVQLQGSGGGLAQAGDSLRLSCAASGTIFSEYNNGLVSPGAGQRTRTCCRYWCWGNTYYADSAKRRFTTSRDNAKNTLYLQKNSLKPEDTAVYYCAFNRPYPSRHIYRGQGTQVTVSS	high polyreactivity
QVQLQGSGGGLVQAGGSLRLSCAASGNIFDADIMAWYRQAPGKESELVASITDGGSTNYADSVKGRFTISRDNAKNTVYLQMNSLKQEDTAVYYCADIAYPDIPTYFDYDSDCFYWSQGTQVTVSS	high polyreactivity
QVQLVASGGGLLQAGGSLRLSCAASGRILRVYAMGWYRPAPGKESELVAAITWRGGSTYYADSVKGRFTISRDNAKNTVYLQMNSLKPEDTAVYYCAAEAYSYGYSALLYDYWGQGTQVTVSS	high polyreactivity
QVQLVASGGGLVHAGASLRLSCAASGRIFTGNVMGWYRQAHWKERELVAAISVSGGRTYYADSVKGRFTISRDYAKNTVYLQMNSLKPVDSAVYYCNARYSRVWYGGDYWGQGTQVTVSS	high polyreactivity
QVQLVASGGGLVQAGGSLRISCAASGSIIYYYAMGWYRHAPRKERELVAAISTSSGRTYYADSVKGRFTISRDNAKNTVYLQMNSLKPEDTAVYYCANEIPFTRYTWPRYNYWGQGTQVTVSS	high polyreactivity
QVQLVASGGGLVQAGGSLRLRCAASGFIFRYNTMGWYRQAPGKEREMVAVINRGGSTYYADSVKGRFTISRDNAKNTVYLQLNSLKAEDTGVYDCNVAKFGRYYYWGQGTQVTVSS	high polyreactivity
QVQLVASGGGLVQAGGSLRLSCAASGFIVSVYAMGWYRQAPGKERELVAVISTSGGRTYYADSVKGRFTISRDNAQNTVYLQMNSLKPEDTAVYYCAADGFQYTLGNYYWGQGTHVTVSS	high polyreactivity
QVQLVASGGGLVQAGGSLRLSCAASGLIIRYYAMGWYRQAPGKEREFVAAITWNGGSTYADSVKGRFTISRDNAKNTVNLQMNSLIPEDTAVYYCAADLSYWDDFDYSGQGTQVTVSS	low polyreactivity

Sequence	polyreactivity (PSR sort gate)
QVQLVASGGGLVQAGGSLRLSCAASGSTFARYAMGWYTPAPGKERELVAAITEGGDRTSYADSVKGRFTISRDNAKNHVYLQMHSLKPEDTAVYYCAAERRYESWYFGYRTMDYWGQGTQVTVSS	low polyreactivity
QVQLVASGGGLVQAGGSLRLSCAASGSTFDIYAMGWYRQAPGKERELVAAISVSDVYTYYADSVKGRFTISRDNAKNTVYLQMNSLKPEDTAVYYCAAETPTHDEWGQGTQVTVSS	high polyreactivity
QVQLVASGGGLVQAGGSLRLSCAASGSTFTQNAMGWDRPAPGQEREVVAAISWSGARTYYADSVKGRFTISRHNAKNTVYLQMNSRKPEDPAVYDCNNYARKRGTTYDYWGHGTQVTVSS	high polyreactivity
QVQLVASGGGLVQAGGSLRLSCAASGSTLDVYAMGWYRQAPGKERELVASISGSGGRTYYADSVKGRFTISRDNAKNTVYLQLNSQNPEDTAVYYCAADVRSYVASRSYRYDYWGQGNQVTVSS	low polyreactivity
QVQLVASGGGLVQAGGSLRLSCAATGSIFYFYAMGWYRPAPWKERELVAAITDCGASTRYADSVKGRFTISRDNAKNTVYLQMNSLKPEDTAVYYCAAVRYHISYREYYWGQGTQVTESS	high polyreactivity
QVQLVASGGGLVQAGGTLRLSCAASGRIFGRYGMGWYSQAPGKERELVAAISRSGDRTYYADSVKGRFTISRDNAKNTVYLPMNSLKPEDTAVYYCAAYSYRYDYWGQGTQVTVAS	high polyreactivity
QVQLVASGGGLVQSGGSLRLSCAASGLTFEQYAMGWYRQAPGKERELVAAISRRGTSTYYADSVKARFTISRDYAKNYVYLQMNSRKPEDTAVYYCNAGWWYLGSPFDRDYWGQGTLVTVSS	high polyreactivity
QVQLVDSCGGLVQAGGSLRLSCYDSGSTFPYKAMGWYRQAPGKERELVAAITSGASTNYADSVKGRFTISRDNAKNTVYLQMNSLTPEDTAVYYCAAQSYGKRIWSPRFQLNYWGQGTQVTVSS	low polyreactivity
QVQLVDSGGCLFQAGGTLRLSCAASGFTLRAYAMGWYRQGPGKEREFVAVISRSDGSTYYADTVKGRFTISRENAKNTVYLQMNSLKPEDSAVYYCADKHRGAKYDYWGQGTQVTVSS	low polyreactivity
QVQLVDSGGCLVQAGGSLRLSCAASGRTDGINAMGWYRQAPGKERELVAAIDSIDGTTYYADSVKGRFTISRDNAKNTVYLQMNSLKQEDTAVYYCAAEFISSYDYWGQGTQVTVSS	high polyreactivity
QVQLVDSGGCLVQAGGSLRLSCAASGRTFYRYAMGWYRQAPGKEREFVARITTSGGSTYYADSVKGRFTISRDNAKNTVYLKMNSLKPEDTEVYYCNARGVTYAFFRFDYWGQGTQVTVSS	high polyreactivity
QVQLVDSGGGIVQAGGSLRLSCPASGSTFGSYALGWSRQKPGKEREWVAAITSAGSTNYADSVKGRFTISRDNAKNTVYLQMNSLKPEDTAVYYCNDVRYYSYQYDPEVTHRYGYWGQGSQVTVSS	high polyreactivity
QVQLVDSGGGLDQAGGSLPLSCAASGSTFVAYAMGWYRQAPGKERELVADNSTSDGSTRYADSVKGRFTISRDNAKNTVYLQMNSLKPEDTAVYYCAAGSEYYSYGGVRFSFYYWGQGTQVTVSS	low polyreactivity
QVQLVDSGGGLDQAGGSLRLSCAAAGSIFYSYAMGWYSQATGKDSELVADISSDGSTNYADSVKGRFTISRDNAKNTVYVQINSLKPEDTAVYYCAKKPSSARYVTIGFDEWGHGTQVTVSS	low polyreactivity
QVQLVDSGGGLFQPGGSLRLSCAASGSTFSDNAMGWYRQAPGKERELVASISSDDGSTYADSVKGRFTISRDNAMNTVYLQMNSLKSEDTAVYYCAADGFLAIYAAEYDYWGQGTQVTVSS	low polyreactivity
QVQLVDSGGGLVPAGGSLRLSCAASGFTFTRYVMGWYRQAPGKERELVAAISGSGGSTNYADSVKGRFTISRDNAKNTVYLQMNSLKPEDTAVYYCAVGYRGWDGYWGQGTQVTVSS	high polyreactivity
QVQLVDSGGGLVQAGGGLRLSCAASGRIFVKYGMGWYRQAPGKERELVAAISWTGGSTYYADSVKGRFTISRDNEKNTVYLQMNSLKPEDTAVYYCAKSFGIWHARWLTYDYWGQGTQVTVSS	low polyreactivity
QVQLVDSGGGLVQAGGILRLSCAASGRTFWIYAMGWYRQAPGKERQLVAAITGSGGSTYYADSVKGRFTISRDNAKNTGYLQMICLKPEDTAVYYCNARVPDCYKWSAYYSHDYWGQGTQVTVSS	low polyreactivity
QVQLVDSGGGLVQAGGILRLSSPASGSTFKYYTMGRSRQAPGKEREWVAGITLSGPTTYYADSVKGRFTISRDNAKNTVYLQMNSLKPEDTAVYYCAADYYHDFNAYYYWGQGTQVTVSS	low polyreactivity
QVQLVDSGGGLVQAGGRLRLSCAASGFIFGRNAMGWYRQAPGKERELVAGISSSGVRTFYADSVKGRFTISRDNAKNTVYLQMNSLKPEDNAVYYCATRGRVYPTKYSLDEDYWGQGTQVTVSS	high polyreactivity
QVQLVDSGGGLVQAGGRLRLSCAASGSTFGHNAMGWYRQAPGKERQLLAAISRSGGITYYADSVKGRFTISRDNAKNTVYLQLNSLKPEDTAVYYCAADAWFSLRYAPRSYAYGYWGQGTQVTVSS	low polyreactivity
